Reference: US20210009693A1 (MABSPACE BIOSCIENCES SUZHOU, published 2021)
Residue numbers refer to the chain shown, from its start. Where two headings read alike, the source gives them in different places. One block for each binder: values may come before it.

Experiments:
[1] = target: T1, human PD-L1 expressed on cells (human, UniProt Q9NZQ7 19-290); test: FACS, IFN-gamma stimulated HCC827 cells
T1 construct: whole, on cells; also called hPD-L1 expressed on HCC827; hPD-L1 on MC38/hPD-L1 cells
Description: Log phase IFN-γ stimulated (500U/ml for 2 days) HCC827 cells were collected and resuspended in blocking buffer (5% BSA+PBS). 2×10\hat{ }5 cells were added to each tube and then washed once with PBS (1500 rpm, 5 mins, RT). The 100 μl/tube serial diluted biotinylated PD-L1 antibodies with blocking buffer were added into corresponding tubes and incubate at 4° C. for 1 hr.

[2] = target: hPD-L1 (antigen of the Biacore assay) (human, UniProt Q9NZQ7 19-238, limits assumed); test: SPR (Biacore), antibody captured on anti-human Fc, antigen in flow
Chain of hPD-L1 (antigen of the Biacore assay) (Q9NZQ7 19-238 limits assumed): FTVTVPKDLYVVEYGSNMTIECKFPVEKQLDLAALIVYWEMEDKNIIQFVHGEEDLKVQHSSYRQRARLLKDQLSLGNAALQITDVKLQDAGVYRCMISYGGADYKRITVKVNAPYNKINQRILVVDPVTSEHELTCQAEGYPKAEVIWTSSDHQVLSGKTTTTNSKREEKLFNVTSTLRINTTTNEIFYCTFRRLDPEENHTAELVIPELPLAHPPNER
Description: A CM5 sensor chip was activated in each flow cell by 7-min injection (10 μl/min) of freshly prepared 1:1 50 mM N-hydroxysuccinimide (NHS): 200 mM 1-ethyl-3-(3-dimethylaminopropyl)-carbodiimide (EDC). Then anti-human Fc antibody (GE Healthcare) in a concentration of 10 μg/ml in 10 mM sodium acetate buffer PH 5.0 was injected onto the activated chip at 10 μl/min (HBS-EP running buffer: 10 mM HEPES, 150 mM NaCl, 3.4 mM EDTA, 0.005% surfactant P20, pH 7.4). The remaining active coupling sites were blocked by 7 min injection of 1M ethanolamine at 10 μl/min. The immobilization level of each flow cell is ˜9000RU. Antibodies were captured in FC2 by anti-human Fe IgG (GE Healthcare) to 200˜300RU. FC1 was used as the reference cell. Antigen was injected at varying concentrations after capture of antibody. The association time for antibody binding antigen is 180s. Surface Regeneration condition is 120s at 10 μl/min in Gly pH1.5. The signals with captured antibody subtracted from those without captured antibody were calculated with Biacore X100 evaluation software ver. 2.0 (Biacore).

[3] = target: T1, human PD-L1 expressed on cells; test: blocking FACS on HCC827 cells; blocked ligand: biotinylated hPD-1-N297A
Description: (§1) Log phase IFN-γ stimulated (500U/ml for 2 days) HCC827 cells were collected and resuspended in blocking buffer (5% BSA+PBS). 2×10\hat{ }5 cells were added to each tube and then washed once with PBS (1500 rpm, 5 mins, RT). The 100 μl/tube serial diluted PD-L1 antibodies (see FIG. 8) with blocking buffer were added into corresponding tubes and incubate at 4° C. for 1 hr. […] After washing for three times with PBS, 100 μl/tube streptavidin-PE 1:200 (EBiosciences) in blocking buffer was added to each tube. The cells were incubated at 4° C. for 1 hr and then washed twice with PBS, followed by resuspending cells in 150 μl PBS for each sample. The cells were then transferred into FACS tube and the binding of the antibodies to the cells were detected with flow cytometry (ACEA Bioscience Novocyte).

[4] = target: T2, Human PD-L1/CD274 with C-Fc Tag (hPD-L1-Fc) (human, UniProt Q9NZQ7 19-238); test: blocking ELISA on coated hPD-L1-Fc; blocked ligand: biotinylated hPD-1-N297A
T2 construct: range 19-238; ACRO Biosystem PD1-H5258, made in HEK293; also called human PD-L1-Fc; not shown: Fc fragment of human IgG1 at C-terminus
T2 sequence (Q9NZQ7 19-238 limits assumed): as above
Description: High-binding clear polystyrene 96 well plates (Nunc) were coated with 100 μl/well of coating solution consisting of 1 μg/ml hPD-L1-Fc overnight at 4° C. Then the plates were washed once on an automatic plate washer using washing buffer (PBS+0.1% Tween 20 (Sigma)). 200 μl of blocking buffer (PBS+1% BSA+1% normal goat serum+0.05% Tween-20) was added to each well and incubated 2 hours at room temp. […] The plates were then washed 3 times using the method described above. […] After the plates were washed 3 times, 100 μl/well of a solution of 1:5000 diluted HRP conjugated Neutravidin antibody (Pierce) in dilution buffer was then added to each well of the plate. After that the ELISA plates were allowed to incubate for 60 min at RT, then the plates were washed 3 times with 250 μl/well washing buffer. Finally, 100 μl/well of TMB was added to each well and the reaction was terminated using 0.64M H₂SO₄. The plates were read on a Thermo Multiscan FC at 450 nM (see FIG. 18A to 18D).

[5] = target: T1, human PD-L1 expressed on cells; test: FACS, IFN-gamma stimulated HCC827 cells; remark: listed apart in the source
[6] = target: T1, human PD-L1 expressed on cells; test: blocking FACS on HCC827 cells; blocked ligand: biotinylated hPD-1-N297A; remark: listed apart in the source
Description: as §1, with “RT).” for “RT). The 100 μl/tube serial diluted PD-L1 antibodies (see FIG. 8) with blocking buffer were added into corresponding tubes and incubate at 4° C. for 1 hr.”, “1:200” for “1:200 (EBiosciences)”, “Novocyte) (see FIGS. 20A and 20B).” for “Novocyte).”

T1 sequence (Q9NZQ7 19-290): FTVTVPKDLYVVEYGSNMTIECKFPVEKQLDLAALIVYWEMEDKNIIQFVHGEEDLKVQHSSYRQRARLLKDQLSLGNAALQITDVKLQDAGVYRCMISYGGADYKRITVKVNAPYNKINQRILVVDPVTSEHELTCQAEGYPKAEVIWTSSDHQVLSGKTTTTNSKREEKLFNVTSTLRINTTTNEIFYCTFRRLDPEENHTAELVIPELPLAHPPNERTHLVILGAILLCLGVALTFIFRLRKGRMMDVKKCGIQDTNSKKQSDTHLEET

EC50 (read off the curve) [1]: ~0.1 µg/mL
Kd [2]: 6.36 nM
koff [2]: 0.000927 s⁻¹
kon [2]: 150000 M⁻¹ s⁻¹
IC50 (read off the curve) [3]: ~0.1 µg/mL
IC50 (read off the curve) [4]: ~0.06 µg/mL
B1: 4B6-H3L3 (antibody, V domains shown)
VH: QVQLVQSGAEVVKPGASVKISCKASGYVFTDYYMNWVKQAPGQGLEWIGDINPNNGGTSYNQKFQGRATVTVDKSTRTAYMELSRLRSDDTAVYYCVKWGDGPFAYWGQGTLVTVSS
VL: DIQMTQSQSSLSASVGDRVTITCQASQNVGAAVAWYQQKPGKAPKLLIYSASNRYTGVPSRFSGSGSGTDFTLTISSMQPEDIATYFCQQYSNYPTFGSGTKLGIK
notes: Humanized; also called humanized 4B6 H3L3

EC50 (read off the curve) [5]: ~0.04 µg/mL
IC50 (read off the curve) [6]: ~0.02 µg/mL
IC50 (read off the curve) [4]: ~0.03 µg/mL
B2: 4B6-H3L4 (antibody, V domains shown)
VH: B1 VH
VL: B1 VL with Q8P, R54L, M78L
notes: produced in 293 cells; light chain constant region not described; also called humanized 4B6 H3L4
